In the DeepSol protein solubility set:

Test: soluble on expression in E. coli; label from the status in PepcDB or PDB records

Soluble on expression in E. coli, not soluble:
MKSIRSRKSRRLRANRRKKRVHQPKLRQKPAKASQSRSRRMSRTDYISENVYIVLVYPKYQGNIGAVARSMWNSGLRHLIIIGNRPDDEAFARSMGGRFILENAEIYDDFASVISRFNVIAATSSTASSNEKHFRRLPLTPEKFWEEMSDQGGKIALVFGREDDGLRNEEIEKCNYFINIPGNPEYPVYNLSHAVAIILYVMFTRFNPPENIEIRAIEPDHEDLMLRNIIEVMRLTSYPEHKIRNTELLLRRLIARSRMSDREYFRMMGVIRRVKESLQRPLENESDHQRN
MGSDKIHHHHHHMPPVWTLPRLYQHFQGAIDLELWTIPYYLTVLYSIKDPTTVPYRLIQAAVYQEMLHAQLVSNIANAYGYSPTLSAPEYVGTAVPHIDFDLDTPNPTSIFTPYSAELGPLDLTRVNTMCLIEYPEWRTQREPDLADDVTDYGSIGEFYDALRVGMEQLRGHVRGNQKQMDEFGPFYQNSPPLTVTESGDAGFLQALTLVDIIVDQGEGQTQPVETIPTEFQNTADGFQDAWPHFQRFDFIRRMPNWPGVYTGVTDPPAGSPGAEAQARLIADFAGFLDILNGMFSGGGAPPAFGVQMAKLGGDILSCWKLGAVPRYS
MSLGLVLSTNVAHIQQDPGGDDRISGINKLPVATGIDVFIPGPNYGDGSGVVGDAIGDSLHHGGAHKAIYAYSREELDFFDPTYRNGYFGENLTTSGIVLEDLLINQQVRIGTTLLEVSIPRRPCRTFAHWLDIKGWLKTFTQRGLPGSYFRVIEEGHINPGDPIEVLQAPDHDITMSMAFRAKMGNKDLARRVVAANCLPARYHEELLKLIEGHHHHHH
MGSDKIHHHHHHDEFIQGIGNQNAQESGVWDFSMSISDMKFSQEDGAQTNPMIGMLITQIKDASLSGKIQVDAKKEKAFNLEMKLKAMGMDVPISLVGSLDNEGKEPKLYLATDMMEYIVAVADSMTDGAIDSSQLDTEKLKGKYIDLLAMNEESTKEWQDTIKEYQESEKERKQSAKEYKEFLEGLDKDTFEKKGDTITHTFTKKELQKLIKITTETSEKGKEQDPFEKVKDVSAKVSVNTKENKTNMLINVKPQQDKNVDMGLESLSSKISITQKAKKATISMPKKENILSEQEVEKIFSDSTSMTGLSTEDTTVAINQ
MQRNSENSKNGRRVSSSSYMSAAAAAGAAAALRLSVDARAGKEYTTQTHQRDKT
MATWEEYLGAQQANDGVQFTWNMWPHSRVDSQKLVVPLTCFFTPLKERPSTEVAQPPLEYDPVLCQKASCKAILNPLCAVDYRAKIWMCPFCNNRNPFPAHYAAIAEDNRPPELYPQFTTIEYTLRKATTMPPIFVFVVDTCMTAEELKSLKECLQTALSLLPADALVGLITYGRMVQLHELNTQGISRSYVFKGTKEVTAKQIKDVMAGGGLSQRPAAGAPGAPAGAPGAPMAMGSGAAPLGQLPGSGLPGGLPRGGGPPLPGAAQGIVAPGGGAPVPHAPANKFLQPISECDESINDLIDQISIDRWPVPQGHRPLRATGAALAVAVTLLESCFPSTGARIMSFIGGACTHGPGAVVGEELKNPIRSWNSIKEDAAPYMKKAIKFYDGLAARIVKNGHAVDVYSCALDQTGLLEMKNMFNSSGGHVVMGDSFNSSLFKQTYQRSFDKDSAGNLKMGFNATMEVKVGAGLKIEGVLGCCASGNVRNANVSDQEMGIGGTCQWKFGAISPRTTIGVVFEIAAQHGSAIPQGGRGMVQFVTQYQHADGRKRIRVTTTCRTWADMATQQPNIAYGFDQEAAAVAIARLASFRASNENDTPEALRWLDRSLIRLCQKFGEYSKDDPNSFRLSDKFSLFPQFMFHLRRSQFLQVFNNSPDETAYYRHILFSENVLESTTMIQPVLFSYSFNGPPEPVLLDTSSILADRILLMDDYFHVLIYHGQTIAQWRKQNFHENPQYATFKQLLEAPVADATSILQERFPMPRYIVTEHEGSQARFLLSKVNPSLTHNNPYANEAGSAVFTDDVSLQVFMEHLKKLSSSSST
MQSETTSKHTDILTSLQLSLTPRRDPTFEETTTDEQTSVQIALSPCLNATIASSKYSLDDLDVSAQYLWDTAADNLIYTTSNAREIPIRTRPTTFLTKRMTEGLQVDVTGAPTSAWIAHPLTFEVIYHHLANILCATPVFYVPHPQLLIAVASHIVSPQLESWLSTFSTPLVKDALIYHEGFPAHIKSSAWQQPLHHMSSDQLSA
MDFLNDFDPSDDENNCKHQEKPTYLPFKPNFHEKYWYRNALKENQTATAITEIDLFRVADCYHNGDFECAENILTGLRESTKNNRTHEIMLIDSLLQCSIKKTSELSSPETSISLQFLSYYESILVDFGDQIQFLRTKAFLLSKLPFTSNYQKEFKNTMALLCQLCGSFENWQLFEIGSKYFTKLEMFGLKLKMKKVLKYEIDHSKGFIQEKLKKRLEKITKELNELEGELESNIIESIHSSINSHKDTTTVESTPNSEFRAHESRSKNKLIPVSDQPATIEDFFHRFPFLSF
MKVIFNADDFGLTQGVNQGIVKAHLDGVVKSTTLMVGMPAEQHAVQLAKQLPDLKIGLHLRFTAGRPLTGERNLTDEHGVFTAYRDFWQRRDYQPEAIYHEAIAQVEHFLKLGLTLSHLDSHHHAHTHPQLAPIIYEVAKKYHVPLRDIGMAGEEAFGCRYHFTDFFYDQRLGIDPLMKHLLELKERFDLVEVMCHPAFVDPLLEKCSGYAKQREEELHILTSAQLIQLLVAHDIEITDYSALISAPLHSCV

Soluble on expression in E. coli, soluble:
MPKRTDIKSILILGAGPIVIGQACEFDYSGAQACKALREEGYRVILVNSNPATIMTDPEMADATYIEPIHWEVVRKIIEKERPDAVLPTMGGQTALNCALELERQGVLEEFGVTMIGATADAIDKAEDRRRFDVAMKKIGLETARSGIAHTMEEALAVAADVGFPCIIRPSFTMGGSGGGIAYNREEFEEICARGLDLSPTKELLIDESLIGWKEYEMEVVRDKNDNCIIVCSIENFDAMGIHTGDSITVAPAQTLTDKEYQIMRNASMAVLREIGVETGGSNVQFAVNPKNGRLIVIEMNPRVSRSSALASKATGFPIAKVAAKLAVGYTLDELMNDITGGRTPASFEPSIDYVVTKIPRFNFEKFAGANDRLTTQMKSVGEVMAIGRTQQESLQKALRGLEVGATGFDPKVSLDDPEALTKIRRELKDAGADRIWYIADAFRAGLSVDGVFNLTNIDRWFLVQIEELVRLEEKVAEVGITGLNADFLRQLKRKGFADARLAKLAGVREAEIRKLRDQYDLHPVYKRVDTCAAEFATDTAYMYSTYEEECEANPSTDREKIMVLGGGPNRIGQGIEFDYCCVHASLALREDGYETIMVNCNPETVSTDYDTSDRLYFEPVTLEDVLEIVRIEKPKGVIVQYGGQTPLKLARALEAAGVPVIGTSPDAIDRAEDRERFQHAVERLKLKQPANATVTAIEMAVEKAKEIGYPLVVRPSYVLGGRAMEIVYDEADLRRYFQTAVSVSNDAPVLLDHFLDDAVEVDVDAICDGEMVLIGGIMEHIEQAGVHSGDSACSLPAYTLSQEIQDVMRQQVQKLAFELQVRGLMNVQFAVKNNEVYLIEVNPRAARTVPFVSKATGVPLAKVAARVMAGKSLAEQGVTKEVIPPYYSVKEVVLPFNKFPGVDPLLGPEMRSTGEVMGVGRTFAEAFAKAQLGSNSTMKKHGRALLSVREGDKERVVDLAAKLLKQGFELDATHGTAIVLGEAGINPRLVNKVHEGRPHIQDRIKNGEYTYIINTTSGRRAIEDSRVIRRSALQYKVHYDTTLNGGFATAMALNADATEKVISVQEMHAQIK
MLIFKIFRRSEWDDFRRAGATAGAPVDLADGYIHFSTAAQVAETAAKHFTAESDLVLVAIDPDRAGPDLKWEPSRGEQLFPHLYRRLTLDDVVWDKSLPLGATGHIFPEGLWLEHHHHHH
MGHHHHHHSHMNGRADFREPNAEVPRPIPHIGPDYIPTEEERRVFAECNDESFWFRSVPLAATSMLITQGLISKGILSSHPKYGSIPKLILACIMGYFAGKLSYVKTCQEKFKKLENSPLGEALRSGQARRSSPPGHYYQKSKYDSSVSGQSSFVTSPAADNIEMLPHYEPIPFSSSMNESAPTGITDHIVQGRNFS
MKKQPGQQPLRSLSLTSAAKSLEEVEPEDDSKKGEPHAKAAGFGRGGGGGKRLPAARSTPMVIPNQVAAMPVQMTGFVQLATNNILSAIAHTNSLMVVQCIEPLEIFTGFETPNRYVVHDMYCRPLLYCMERSNVFARQYHGNNRKLSASTLDSCRRCSPMRTLTLFTFQWTCRQS
